This note sets out measurements from the supplement of paper PMC12042874.

± gives the uncertainty stated by the source.

The data set can be described thus: amyloid nucleation score (Sup35N fusion, yeast selection) (log enrichment); library NNK2; higher = more nucleation; inactive = no reads after selection. In outline:
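Growth for 7 days at 30°C on medium lacking adenine and uracil followed a 24-hour induction with 100 μM copper sulfate of psi-negative yeast expressing peptides of 20 random codons fused to Sup35N. Input and output plasmid inserts were sequenced with Illumina, and sequences with under 100 input reads were excluded. Nucleation score is the DiMSum log enrichment of output over input reads, centred on the mode score of non-aggregating sequences.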
On to FCRGIHVTSIITTIDWYYSL, for which the amyloid nucleation score amounted to 0.36 ± 0.62.
For CTAHYYCQGCWTSRMLNLTA, the amyloid nucleation score was -0.116 ± 0.47.
CGCHCVYSPYYCFLTYWCAN yielded an amyloid nucleation score of -0.542 ± 0.76.
In turn, MRSFCFSVQNIQVTYHVGLA displayed an amyloid nucleation score of 3.94 ± 0.1.
The substance NLKKAQFRGMYVAYP yielded an amyloid nucleation score of 1.55 ± 0.47.
KSMLLMIMSSFGSDIWHITS: the amyloid nucleation score was -0.337 ± 1.1.
For GSVTVCIMSRR the value was -0.729 ± 0.64; for YWTGGLHNEHLSMHVSVYSN, -0.527 ± 1.1; for WSRTVYGIFCKIG, 0.208 ± 0.65.
Turning to HSALWRLWEPAQP, the amyloid nucleation score worked out at 0.552 ± 0.64.
Take ILYGDVWLRFKRFWLSWMPA: the amyloid nucleation score is -0.055 ± 0.55.
For RRLYF the value was -0.561 ± 0.52.
As for GRGYAAVLNWRLFDKDRGRI, the amyloid nucleation score is 0.035 ± 0.28.
For RPLCLLGRVATSKETSGRRC the value was 4.34 ± 0.049.
The value for CDRLSVNHFKEAGVQGSLSE was 0.851 ± 0.21; that for MALHVQWRVTGSI was 5.14 ± 0.037.
In turn, LFEAWSIYIYFASLKGTAGG registered an amyloid nucleation score of -1.26 ± 1.1.
VDRYLSHCVGKGLDF gave an amyloid nucleation score of -0.55 ± 0.56.
In turn, LLPATWYLVLF had an amyloid nucleation score of -0.204 ± 0.49.
For TVDNPSNSFTFFRVYQLYVR the value was 3.11 ± 0.14.
For RHHYHSYGSTLVKVRAGQRC the value was 4.88 ± 0.077; for RLILFAMTVLLASRGYNVRS, 0.402 ± 0.21; for FNIPGHSH, -1.51 ± 0.78.
Consider MSIWCNSIDRTFIDNLRPVF, for which the amyloid nucleation score is -1.43 ± 0.62.
In turn, LDNACSQGGGDFRLSLS returned an amyloid nucleation score of -0.773 ± 0.55.
In the case of KTRHKVLRKDL, the amyloid nucleation score was -1.64 ± 0.54.
On to VLFNKSLLRWSNWLV, for which the amyloid nucleation score amounted to 0.166 ± 0.26.
As to VPGLESMR, the amyloid nucleation score is 0.57 ± 0.81.
The value for FMITQSFSGT was -1.05 ± 0.41; that for DEWPWAVPSGVSRGCAGSVY was 0.231 ± 0.32.
Take ASSTNVYLIIIGLWSAAM: the amyloid nucleation score is 2.46 ± 0.18.
QLFTMDN displayed an amyloid nucleation score of -0.459 ± 0.78.
In turn, CESPLSYWWRSRSLFSLCVE yielded an amyloid nucleation score of -0.359 ± 0.55.
The value for NNSPVSPDGCLLGSSVQYWY was -0.375 ± 1.1.
TLMIYCFFSGFLKGVWMM displayed an amyloid nucleation score of 0.053 ± 0.8.
For GTTDTCSAV the value was 3.2 ± 0.093; for FRALKMISDPSRHSVLL, -0.02 ± 0.34; for DWWLLYNCRSRMMGIKADPL, “inactive”.
Turning to FLLPSYERDSSYVAYF, the amyloid nucleation score was -0.687 ± 0.79.
Substance IIAEFDSGWSEAFDSCLGMS showed an amyloid nucleation score of -0.114 ± 0.54.
In turn, IGNDFNANM returned an amyloid nucleation score of -0.754 ± 0.76.
In turn, ALVVLFTCGCSGMLVYNAWS yielded an amyloid nucleation score of 0.841 ± 0.13.
In the case of DSEHYVMWLKWYLLFLTYTH, the amyloid nucleation score was -0.307 ± 0.3.
CNSRNMVTGISM displayed an amyloid nucleation score of 0.034 ± 1.1.
Turning to HRLLVPDHTMYVSLKRKGLR, the amyloid nucleation score amounted to 0.092 ± 1.1.
With SLWYFCRPIGGI, the amyloid nucleation score is -0.391 ± 0.29.
With LSLFISGDYWVIQGNIY, the amyloid nucleation score turned out to be 3.65 ± 0.059.
For FLNNVVYRHCDSYLTGNCRN, the amyloid nucleation score was 5.151 ± 0.041.
On to LNYYWRFMPGGIGITGSSLS, for which the amyloid nucleation score amounted to 1.72 ± 0.12.
As for KNIAISSRVADAGFWL, the amyloid nucleation score was 2.31 ± 0.093.
In turn, KYSCTLVPFLLARFDLGSWG returned an amyloid nucleation score of -0.112 ± 0.34.
IFMRVHLSMIVELKTHPDI gave an amyloid nucleation score of 3.2 ± 0.056.
In turn, CVFLHSALSQYRVIIVTWYP came in with an amyloid nucleation score of -0.237 ± 0.63.
RMNFLA returned an amyloid nucleation score of -0.145 ± 0.5.
In turn, STTLSEIMIYAVTGG yielded an amyloid nucleation score of -0.45 ± 0.31.
WLWSSLISSMVVYSQ gave an amyloid nucleation score of 2.53 ± 0.072.
Turning to CLVDGLANVHVYRENLGF, the amyloid nucleation score is -0.841 ± 0.29.
Consider YLRTCI, for which the amyloid nucleation score was -0.084 ± 0.49.
VIILRTPYVCSHYWSDPTVL returned an amyloid nucleation score of -0.138 ± 0.56.
Turning to IRAKFI, the amyloid nucleation score came to 0.455 ± 0.39.
RNSVFPILLAYDASDFVARK had an amyloid nucleation score of -0.494 ± 0.41.
In turn, YWVGIDRHFHGRQYCKAGA registered an amyloid nucleation score of 1.11 ± 0.45.
On to GAGLMALNLTHFVGGGLSTN, for which the amyloid nucleation score is -0.179 ± 0.76.
As to GIFSCRLCSMLIELLMLRIM, the amyloid nucleation score is -0.505 ± 1.1.
For the substance VLMASSLITVSICVPRTWAY, the amyloid nucleation score amounted to 6.172 ± 0.041.
GSCRDLDLLLERHWRVVSNL gave an amyloid nucleation score of 0.903 ± 0.57.
For FMLFRRGKNQRFRRLTDYKN the value was -2.44 ± 1.1; for CSYVDRTLGSNLWVVRSNSQ, 0.737 ± 0.51.
Turning to NFNCYFS, the amyloid nucleation score is 4.888 ± 0.037.
For PKSYWLSISRLKPVSQYYLR, the amyloid nucleation score worked out at 1.21 ± 0.24.
SVIISVVD came in with an amyloid nucleation score of -0.851 ± 0.35.
As for HRPNCFRWPGLRVLFWYRK, the amyloid nucleation score was -0.326 ± 0.45.
As to RMLLQGVKAVGRGNNGINTV, the amyloid nucleation score stood at 0.479 ± 0.8.
Turning to DYAIVSGVLLTQMQQLMCFV, the amyloid nucleation score came to 0.466 ± 0.33.
Consider SGLPMYCSYRYHSRLGNTYR, for which the amyloid nucleation score came to 2.92 ± 0.064.
As for HNFVFLGKFAYTWKWMKMLS, the amyloid nucleation score entry was “inactive”.
For HCMYDWMNRSMGLVFDCLFL the value was -1.04 ± 1.
NCSYNMNKRASSMFHSGCVV: the amyloid nucleation score worked out at 2.81 ± 0.14.
LSGLIGG had an amyloid nucleation score of -0.135 ± 0.55.
For FTGCVYSVFSNQQ the value was 4.76 ± 0.11; for RKVTAVHLRHPP, 2.2 ± 0.15.
As to DRAVLRGVVSDNSV, the amyloid nucleation score was determined as 0.439 ± 0.74.
TNLMAFLRPFAVVTRND had an amyloid nucleation score of -0.355 ± 0.76.
Consider GMNAAGEVWVRGWTSGCMVY, for which the amyloid nucleation score is 0.225 ± 0.5.
The value for NITLRSQGIVRGQTFICLFW was -0.354 ± 0.56; that for AIRCMEVKRTKSLLLVDSLS was 0.154 ± 0.23; that for CILLPKVSCCCKGLICCDFV was 0.186 ± 0.34.
As for LVSTEIN, the amyloid nucleation score was 3.75 ± 0.052.
As to YSSFFHFRVCNLCRWGSVSN, the amyloid nucleation score worked out at 0.121 ± 0.18.
In turn, LQSCAGTFTCDCVVGRNYGR gave an amyloid nucleation score of 0.31 ± 0.23.
For TVGIVGFHVVVRELWVGVRR the value was 6.868 ± 0.066.
As to AYRVWRRGVEMMRNPFLPVA, the amyloid nucleation score amounted to 3.6 ± 0.064.
The value for YITVSSESAWHYTDQATFDA was -0.129 ± 1.1; that for SVFVNCNHWYIYSPWPSKRN was 8.715 ± 0.047.
Take CPEDVAEFMCRALFRSISIG: the amyloid nucleation score stood at 0.45 ± 0.74.
The substance RLLDFCQFPVTS returned an amyloid nucleation score of 3.7 ± 0.063.
Substance ILDFKWNYYG yielded an amyloid nucleation score of 3.05 ± 0.11.
MYYASIIEKYLYRNDLVGVG: the amyloid nucleation score was determined as 0.269 ± 0.33.
SNRCLIIFLILC returned an amyloid nucleation score of 5.92 ± 0.077.
Regarding LQCLSRASGHCPGRSTFWHF, the amyloid nucleation score amounted to 1.02 ± 0.27.
In turn, ITYNIEISMRDF displayed an amyloid nucleation score of 4.32 ± 0.11.
For MTNSLCSTCIMFYSMCMNST the value was 7.79 ± 0.08.
In turn, LASTDTWHCVGGEFHKSA gave an amyloid nucleation score of -0.571 ± 0.28.
LNRTRYIAISKVLNRFSVSR returned an amyloid nucleation score of -0.237 ± 0.64.
The value for IYYRVWMSFSFRG was -0.717 ± 0.37.
Substance ESQWYVIDGAPFPTSGVLMS showed an amyloid nucleation score of 0.013 ± 0.35.
For FNVEVRV the value was -0.379 ± 0.45; for ALFFRTKTKHWVSCRFLMS, 2.86 ± 0.078.
VDIASLKLTSNH had an amyloid nucleation score of -0.213 ± 0.65.
LSHMPDMALAKPWHRARD: the amyloid nucleation score stood at 5.04 ± 0.076.
With SNCSPLATMDCSPDFMSTF, the amyloid nucleation score was -0.121 ± 1.1.
IYGAMCLCP showed an amyloid nucleation score of -0.005 ± 0.63.
PQVNPYLNLCRLTQDMLLHR came in with an amyloid nucleation score of 0.832 ± 0.15.
With AGWNNSMGLDE, the amyloid nucleation score entry is “inactive”.
As for RVVWWVVGFS, the amyloid nucleation score is -0.297 ± 0.56.
VNNYWNDSCARSLNMGRTGR gave an amyloid nucleation score of 0.791 ± 0.27.
For ASVAGSV, the amyloid nucleation score was determined as 0.781 ± 0.27.
For LKCRVITQSCIPSSINRLDG the value was -0.02 ± 0.22.
In turn, PRVRSAVQSLRGVKYCLGRR registered an amyloid nucleation score of -0.531 ± 0.63.
On to FGFNCMGWYRDCAVTSTWGA, for which the amyloid nucleation score came out at 0.809 ± 0.31.
In turn, SKVFCTIFAWVVVE showed an amyloid nucleation score of 7.038 ± 0.033.
MWWFYGSILHRGDRT came in with an amyloid nucleation score of 1.58 ± 0.23.
KSHAPFVLMCRIGVGSKCGK: the amyloid nucleation score came to 3.81 ± 0.09.
NGARKCFIDAHWESAVANPE returned an amyloid nucleation score of 3.2 ± 0.099.
AQAFLNGVGRLLVCTRTCRN registered an amyloid nucleation score of 0.895 ± 0.81.
For HFIIYYDSYNTMVIGEFAVQ, the amyloid nucleation score entry is “inactive”.
For TCRLRFGCEYGQTFSCVSWA the value was 0.531 ± 0.64; for REVQYWARYLSVMQLCFVSS, 2.19 ± 0.13; for IMFASKHCSVGVMLKIGRTF, 0.209 ± 0.33.
Substance CNIVPYRPINGWIPDVLLED yielded an amyloid nucleation score of -0.275 ± 0.79.
For the substance ISGVLLWIRRFKHPICEEAW, the amyloid nucleation score came to 0.371 ± 0.56.
CLEHHNIWVILLVER displayed an amyloid nucleation score of -0.207 ± 0.63.
For the substance YSGFLRCLAYALI, the amyloid nucleation score was found to be 0.061 ± 0.8.
GRTYGFSSRVVMRRGSCDFG displayed an amyloid nucleation score of 0.913 ± 0.52.
Turning to AGRLYNISNY, the amyloid nucleation score entry was “inactive”.
Turning to LLTTEQ, the amyloid nucleation score came out at 1.29 ± 0.43.
With IFMAKFSEIPTGPVIIMFYL, the amyloid nucleation score entry was “inactive”.
WLKVS: the amyloid nucleation score is -1.48 ± 0.55.
In turn, RTSSTR yielded an amyloid nucleation score of 0.468 ± 0.28.
Consider DRYYVFLILWTRGNTRRPTG, for which the amyloid nucleation score was -1.02 ± 0.39.
LCDPLLVKNCRLRLTVLWGM had an amyloid nucleation score of -0.057 ± 0.63.
